The Human Domainome abundance scans (Beltran et al. 2025)
± gives the uncertainty stated by the source.

B1: Intersectin-1, residues 1156 to 1213; numbered along this chain, Q15811 (parent)
chain: AVCQVIGMYDYTAQNDDELAFNKGQIINVLNKEDPDWWKGEVNGQVGLFPSNYVKLTT

Variants of: B1
Experiment: abundance fitness (aPCA) (normalised: wild type 0, dead -1); higher = more abundant; growth selection in yeast, the domain comes from the species named
Settings: Homo sapiens

Variant	abundance fitness
AVCQVIGMYDPTAQNDDELAFNKGQIINVLNKEDPDWWKGEVNGQVGLFPSNYVKLTT [Y11P]	-0.759 ± 0.16
AVCQVIGMYDLTAQNDDELAFNKGQIINVLNKEDPDWWKGEVNGQVGLFPSNYVKLTT [Y11L]	-0.851 ± 0.13
AVCQVIGMYDDTAQNDDELAFNKGQIINVLNKEDPDWWKGEVNGQVGLFPSNYVKLTT [Y11D]	-0.928 ± 0.23
AVCQVIGMYDHTAQNDDELAFNKGQIINVLNKEDPDWWKGEVNGQVGLFPSNYVKLTT [Y11H]	0.077 ± 0.16
AVCQVIGMYDQTAQNDDELAFNKGQIINVLNKEDPDWWKGEVNGQVGLFPSNYVKLTT [Y11Q]	-0.692 ± 0.22
AVCQVIGMYDYMAQNDDELAFNKGQIINVLNKEDPDWWKGEVNGQVGLFPSNYVKLTT [T12M]	-0.168 ± 0.14
AVCQVIGMYDYWAQNDDELAFNKGQIINVLNKEDPDWWKGEVNGQVGLFPSNYVKLTT [T12W]	-0.629 ± 0.16
AVCQVIGMYDYQAQNDDELAFNKGQIINVLNKEDPDWWKGEVNGQVGLFPSNYVKLTT [T12Q]	-0.345 ± 0.18
AVCQVIGMYDYVAQNDDELAFNKGQIINVLNKEDPDWWKGEVNGQVGLFPSNYVKLTT [T12V]	-0.165 ± 0.094
AVCQVIGMYDYDAQNDDELAFNKGQIINVLNKEDPDWWKGEVNGQVGLFPSNYVKLTT [T12D]	-0.203 ± 0.11
AVCQVIGMYDYIAQNDDELAFNKGQIINVLNKEDPDWWKGEVNGQVGLFPSNYVKLTT [T12I]	-0.608 ± 0.17
AVCQVIGMYDYKAQNDDELAFNKGQIINVLNKEDPDWWKGEVNGQVGLFPSNYVKLTT [T12K]	-0.178 ± 0.18
AVCQVIGMYDYLAQNDDELAFNKGQIINVLNKEDPDWWKGEVNGQVGLFPSNYVKLTT [T12L]	-0.369 ± 0.095
AVCQVIGMYDYHAQNDDELAFNKGQIINVLNKEDPDWWKGEVNGQVGLFPSNYVKLTT [T12H]	-0.108 ± 0.19
AVCQVIGMYDYGAQNDDELAFNKGQIINVLNKEDPDWWKGEVNGQVGLFPSNYVKLTT [T12G]	-0.424 ± 0.086
AVCQVIGMYDYRAQNDDELAFNKGQIINVLNKEDPDWWKGEVNGQVGLFPSNYVKLTT [T12R]	-0.072 ± 0.083
AVCQVIGMYDYNAQNDDELAFNKGQIINVLNKEDPDWWKGEVNGQVGLFPSNYVKLTT [T12N]	0.01 ± 0.16
AVCQVIGMYDYYAQNDDELAFNKGQIINVLNKEDPDWWKGEVNGQVGLFPSNYVKLTT [T12Y]	-0.289 ± 0.21
AVCQVIGMYDYAAQNDDELAFNKGQIINVLNKEDPDWWKGEVNGQVGLFPSNYVKLTT [T12A]	-0.075 ± 0.092
AVCQVIGMYDYFAQNDDELAFNKGQIINVLNKEDPDWWKGEVNGQVGLFPSNYVKLTT [T12F]	-0.39 ± 0.19
AVCQVIGMYDYCAQNDDELAFNKGQIINVLNKEDPDWWKGEVNGQVGLFPSNYVKLTT [T12C]	-0.464 ± 0.16
AVCQVIGMCDYTAQNDDELAFNKGQIINVLNKEDPDWWKGEVNGQVGLFPSNYVKLTT [Y9C]	0.387 ± 0.12
AVCQVIGMKDYTAQNDDELAFNKGQIINVLNKEDPDWWKGEVNGQVGLFPSNYVKLTT [Y9K]	0.474 ± 0.15

Variant	abundance fitness
AVCQVIGMVDYTAQNDDELAFNKGQIINVLNKEDPDWWKGEVNGQVGLFPSNYVKLTT [Y9V]	0.336 ± 0.086
AVCQVIGMTDYTAQNDDELAFNKGQIINVLNKEDPDWWKGEVNGQVGLFPSNYVKLTT [Y9T]	0.257 ± 0.11
AVCQVIGMHDYTAQNDDELAFNKGQIINVLNKEDPDWWKGEVNGQVGLFPSNYVKLTT [Y9H]	0.278 ± 0.18
AVCQVIGMEDYTAQNDDELAFNKGQIINVLNKEDPDWWKGEVNGQVGLFPSNYVKLTT [Y9E]	0.338 ± 0.12
AVCQVIGMDDYTAQNDDELAFNKGQIINVLNKEDPDWWKGEVNGQVGLFPSNYVKLTT [Y9D]	0.196 ± 0.15
AVCQVIGMPDYTAQNDDELAFNKGQIINVLNKEDPDWWKGEVNGQVGLFPSNYVKLTT [Y9P]	-0.835 ± 0.2
AVCQVIGMIDYTAQNDDELAFNKGQIINVLNKEDPDWWKGEVNGQVGLFPSNYVKLTT [Y9I]	0.431 ± 0.13
AVCQVIGMQDYTAQNDDELAFNKGQIINVLNKEDPDWWKGEVNGQVGLFPSNYVKLTT [Y9Q]	0.535 ± 0.14
AVCQVIGMLDYTAQNDDELAFNKGQIINVLNKEDPDWWKGEVNGQVGLFPSNYVKLTT [Y9L]	0.263 ± 0.092
AVCQVIGMNDYTAQNDDELAFNKGQIINVLNKEDPDWWKGEVNGQVGLFPSNYVKLTT [Y9N]	0.418 ± 0.15
AVCQVIGMRDYTAQNDDELAFNKGQIINVLNKEDPDWWKGEVNGQVGLFPSNYVKLTT [Y9R]	0.538 ± 0.074
AVCQVIGMGDYTAQNDDELAFNKGQIINVLNKEDPDWWKGEVNGQVGLFPSNYVKLTT [Y9G]	-0.164 ± 0.088
AVCQVIGMFDYTAQNDDELAFNKGQIINVLNKEDPDWWKGEVNGQVGLFPSNYVKLTT [Y9F]	0.259 ± 0.13
AVCQVIGMYDYTAGNDDELAFNKGQIINVLNKEDPDWWKGEVNGQVGLFPSNYVKLTT [Q14G]	-0.186 ± 0.099
AVCQVIGMYDYTAENDDELAFNKGQIINVLNKEDPDWWKGEVNGQVGLFPSNYVKLTT [Q14E]	-0.122 ± 0.18
AVCQVIGMYDYTAHNDDELAFNKGQIINVLNKEDPDWWKGEVNGQVGLFPSNYVKLTT [Q14H]	-0.505 ± 0.22
AVCQVIGMYDYTALNDDELAFNKGQIINVLNKEDPDWWKGEVNGQVGLFPSNYVKLTT [Q14L]	-0.441 ± 0.087
AVCQVIGMYDYTADNDDELAFNKGQIINVLNKEDPDWWKGEVNGQVGLFPSNYVKLTT [Q14D]	-0.285 ± 0.2
AVCQVIGMYDYTAANDDELAFNKGQIINVLNKEDPDWWKGEVNGQVGLFPSNYVKLTT [Q14A]	-0.267 ± 0.15
AVCQVIGMYDYTAMNDDELAFNKGQIINVLNKEDPDWWKGEVNGQVGLFPSNYVKLTT [Q14M]	-0.284 ± 0.13
AVCQVIGMYDYTAINDDELAFNKGQIINVLNKEDPDWWKGEVNGQVGLFPSNYVKLTT [Q14I]	-0.58 ± 0.19
AVCQVIGMYDYTAKNDDELAFNKGQIINVLNKEDPDWWKGEVNGQVGLFPSNYVKLTT [Q14K]	0.161 ± 0.14
AVCQVIGMYDYTACNDDELAFNKGQIINVLNKEDPDWWKGEVNGQVGLFPSNYVKLTT [Q14C]	-0.582 ± 0.16
